Assay [1] has as its target equine LH/chorionic gonadotropin receptor (eLH/CGR), in CHO-K1 cells (equine).
The target in assay [2] is rat FSH receptor (rFSHR), in CHO-K1 cells (rat) (UniProt P20395).
Assay [3] addresses rat LH/chorionic gonadotropin receptor (rLH/CGR), in CHO-K1 cells (rat) (UniProt P16235).
The target in assay [4] is equine LH/chorionic gonadotropin receptor from pVSVG-eLH/CGR (pCORON1000 SP VSV-G), in HEK 293 cells (equine).

UniProt P16235, sequence (P16235 27-700): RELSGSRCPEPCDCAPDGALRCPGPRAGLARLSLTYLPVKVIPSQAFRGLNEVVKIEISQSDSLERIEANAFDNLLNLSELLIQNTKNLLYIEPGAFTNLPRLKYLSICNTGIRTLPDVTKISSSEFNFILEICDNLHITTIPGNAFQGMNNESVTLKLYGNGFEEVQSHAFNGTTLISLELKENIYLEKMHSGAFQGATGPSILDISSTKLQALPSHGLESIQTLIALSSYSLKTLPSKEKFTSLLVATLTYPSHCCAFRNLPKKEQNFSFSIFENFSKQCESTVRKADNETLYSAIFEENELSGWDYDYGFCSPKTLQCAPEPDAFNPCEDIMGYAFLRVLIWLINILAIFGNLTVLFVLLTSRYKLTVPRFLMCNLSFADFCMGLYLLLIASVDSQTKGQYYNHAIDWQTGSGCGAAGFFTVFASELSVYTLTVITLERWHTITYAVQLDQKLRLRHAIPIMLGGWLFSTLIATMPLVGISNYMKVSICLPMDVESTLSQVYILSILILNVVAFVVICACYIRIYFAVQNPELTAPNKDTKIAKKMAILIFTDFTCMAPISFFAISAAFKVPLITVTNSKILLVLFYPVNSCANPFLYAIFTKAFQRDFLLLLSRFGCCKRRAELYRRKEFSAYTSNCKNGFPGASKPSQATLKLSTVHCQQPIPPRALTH
UniProt P20395, sequence (P20395 18-692): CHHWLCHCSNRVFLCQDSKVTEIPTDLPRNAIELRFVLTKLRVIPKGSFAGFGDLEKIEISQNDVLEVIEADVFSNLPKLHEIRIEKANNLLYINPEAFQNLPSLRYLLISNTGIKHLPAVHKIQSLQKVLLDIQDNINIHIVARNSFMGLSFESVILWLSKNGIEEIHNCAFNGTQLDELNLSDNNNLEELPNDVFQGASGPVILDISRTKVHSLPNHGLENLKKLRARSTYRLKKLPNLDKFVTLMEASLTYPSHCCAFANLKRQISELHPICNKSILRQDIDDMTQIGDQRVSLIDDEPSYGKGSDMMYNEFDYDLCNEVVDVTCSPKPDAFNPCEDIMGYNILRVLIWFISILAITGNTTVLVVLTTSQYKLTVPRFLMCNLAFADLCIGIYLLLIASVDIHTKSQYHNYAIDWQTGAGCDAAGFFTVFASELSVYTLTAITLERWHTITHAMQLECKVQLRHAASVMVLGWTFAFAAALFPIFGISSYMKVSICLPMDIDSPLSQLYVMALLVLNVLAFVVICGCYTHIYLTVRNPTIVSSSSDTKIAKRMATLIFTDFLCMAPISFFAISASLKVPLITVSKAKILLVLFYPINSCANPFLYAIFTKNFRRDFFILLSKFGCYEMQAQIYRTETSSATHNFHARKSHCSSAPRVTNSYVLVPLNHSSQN

“single-chain recombinant equine chorionic gonadotropin β/α (rec-eCG β/α) (from UniProt P08751 21-169) (ligand)” returned a cAMP production (HTRF) in CHO-K1 cells expressing eLH/CGR, 30 min with rec-eCG: EC50 in assay [1] of 0.2 ng/mL. Besides, the cAMP production (HTRF) in CHO-K1 cells expressing rFSHR, 30 min with rec-eCG: EC50 in assay [2] was 0.1 ng/mL. Moreover, the cAMP production (HTRF) in CHO-K1 cells expressing rLH/CGR, 30 min with rec-eCG: EC50 in assay [3] was 0.03 ng/mL. Also, the pERK1/2 activation (HTRF) in HEK 293 cells expressing eLH/CGR, 50 and 250 ng/mL rec-eCG, 0 to 30 min, fold over basal activity in assay [4] amounted to 7.8 fold.
